Measurements published in the Human Domainome abundance scans (Beltran et al. 2025).
± gives the uncertainty stated by the source.

B1: E3 ubiquitin-protein ligase TRIM36, residues 208 to 252; numbered along this chain, Q9NQ86 (parent)
chain: KILMCPEHETERINMYCELCRRPVCHLCKLGGNHANHRVTTMSSA
B2: GAS2-like protein 1, residues 209 to 276; numbered along this chain, Q99501 (parent)
chain: DELVREILGRCTCPDQFPMIKVSEGKYRVGDSSLLIFVRVLRSHVMVRVGGGWDTLEHYLDKHDPCRC

Variants of: B1
Test: abundance fitness (aPCA) (normalised: wild type 0, dead -1); higher = more abundant; growth selection in yeast, the domain comes from the species named
Details: Homo sapiens

| Variant | abundance fitness |
| --- | --- |
| R21W | -0.416 ± 0.065 |
| T40L | -0.243 ± 0.054 |
| K29T | -0.009 ± 0.063 |
| H34W | -0.733 ± 0.063 |
| P6Q | -0.042 ± 0.071 |
| H34E | -0.272 ± 0.055 |
| N36F | -0.017 ± 0.15 |
| H26F | -0.307 ± 0.24 |
| T40I | -0.265 ± 0.08 |
| C25D | -0.553 ± 0.11 |
| T41L | -0.149 ± 0.049 |
| T10H | -0.039 ± 0.07 |
| E11G | -0.047 ± 0.12 |
| H34K | -0.485 ± 0.059 |
| H34P | -0.391 ± 0.078 |
| S43Q | 0.027 ± 0.067 |
| A35Y | -0.137 ± 0.09 |
| G31R | -0.048 ± 0.048 |
| L27P | -0.355 ± 0.071 |
| V24L | -0.129 ± 0.058 |
| A35I | 0.255 ± 0.49 |
| G32F | -0.243 ± 0.12 |
| R21N | -0.121 ± 0.07 |

| Variant | abundance fitness |
| --- | --- |
| N14F | 0.08 ± 0.1 |
| V39S | 0.008 ± 0.055 |
| M42T | 0.097 ± 0.064 |
| V24M | -0.133 ± 0.066 |
| T40Y | -0.191 ± 0.16 |
| R38C | 0.017 ± 0.067 |
| P6D | -0.092 ± 0.071 |
| E9C | -0.074 ± 0.061 |
| M4T | -0.072 ± 0.067 |
| L19N | 0.169 ± 0.11 |
| E11P | -0.854 ± 0.42 |
| S44E | 0.086 ± 0.057 |
| E18N | -0.151 ± 0.082 |
| R22V | -0.01 ± 0.055 |
| M4R | -0.165 ± 0.044 |
| M4G | -0.238 ± 0.046 |
| R21G | -0.116 ± 0.055 |
| V39P | -0.005 ± 0.053 |
| E18H | -0.343 ± 0.1 |
| V24R | -0.44 ± 0.055 |
| H8W | -1.6 ± 0.2 |
| L3T | 0.036 ± 0.058 |
| C25P | -0.723 ± 0.07 |

| Variant | abundance fitness |
| --- | --- |
| H37N | -0.231 ± 0.078 |
| N33T | 0.044 ± 0.052 |
| I13M | 0.049 ± 0.31 |
| R12A | -0.258 ± 0.12 |
| C20A | -0.652 ± 0.059 |
| A45R | -0.112 ± 0.094 |
| V39E | 0.037 ± 0.053 |
| R12G | -0.057 ± 0.061 |
| L30E | 0.09 ± 0.056 |
| R22C | -0.118 ± 0.062 |
| R21K | 0.108 ± 0.071 |
| M4W | -0.191 ± 0.062 |
| Y16K | -0.16 ± 0.1 |
| R38G | 0.108 ± 0.045 |
| C25I | -0.814 ± 0.1 |
| M15A | -0.166 ± 0.18 |
| I2Y | -0.532 ± 0.29 |
| T41N | -0.289 ± 0.16 |
| C25T | -0.612 ± 0.062 |
| I13A | -0.015 ± 0.078 |
| R12I | -0.14 ± 0.079 |
| H26W | -0.324 ± 0.08 |
| T41R | -0.093 ± 0.045 |

| Variant | abundance fitness |
| --- | --- |
| V39R | -0.064 ± 0.048 |
| A45S | -0.074 ± 0.084 |
| N33K | 0.016 ± 0.061 |
| H37L | -0.26 ± 0.051 |
| M42W | -0.071 ± 0.048 |
| L19P | 0.029 ± 0.063 |
| L3C | -0.055 ± 0.057 |
| Y16V | -0.437 ± 0.28 |
| S43T | -0.093 ± 0.054 |
| M4Q | -0.181 ± 0.059 |
| M4C | -0.075 ± 0.076 |
| L19K | 0.052 ± 0.063 |
| V39I | -0.149 ± 0.24 |
| H8M | -1.4 ± 0.22 |
| I2V | -0.157 ± 0.066 |
| S44I | -0.246 ± 0.074 |
| G32H | -0.267 ± 0.11 |
| T40W | -0.287 ± 0.06 |
| T40V | -0.023 ± 0.059 |
| L19Q | 0.004 ± 0.067 |
| A35D | 0.085 ± 0.098 |
| Y16H | 0.082 ± 0.14 |
| N36M | -0.109 ± 0.068 |

Variants of: B2
Test: as above
Details: Homo sapiens

| Variant | abundance fitness |
| --- | --- |
| D1A | -0.623 ± 0.28 |
| D1C | -0.657 ± 0.23 |
| D1E | -0.087 ± 0.2 |
| D1F | -0.55 ± 0.4 |
| D1G | -0.596 ± 0.17 |
| D1H | -0.693 ± 0.24 |
| D1K | -0.233 ± 0.23 |
| D1L | -0.761 ± 0.14 |
| D1N | -0.536 ± 0.13 |
| D1P | -0.517 ± 0.48 |
| D1R | -0.624 ± 0.2 |
| D1S | -0.205 ± 0.13 |
| D1T | -0.707 ± 0.15 |
| D1V | -0.653 ± 0.12 |
| D1W | -0.621 ± 0.17 |
| D1Y | -0.574 ± 0.15 |
| E2A | -0.263 ± 0.057 |
| E2C | -0.282 ± 0.091 |
| E2D | 0.149 ± 0.083 |
| E2F | 0.1 ± 0.17 |
| E2H | -0.006 ± 0.2 |
| E2K | 0.031 ± 0.072 |
| E2M | -0.224 ± 0.087 |
| E2N | 0.073 ± 0.076 |
| E2P | -0.218 ± 0.097 |

| Variant | abundance fitness |
| --- | --- |
| E2R | 0 ± 0.064 |
| E2S | -0.06 ± 0.089 |
| E2T | 0.012 ± 0.1 |
| E2V | -0.434 ± 0.075 |
| E2Y | -0.057 ± 0.065 |
| L3C | -0.117 ± 0.076 |
| L3D | -0.559 ± 0.15 |
| L3E | -0.627 ± 0.12 |
| L3F | -0.221 ± 0.14 |
| L3H | -0.34 ± 0.081 |
| L3I | -0.129 ± 0.072 |
| L3K | -0.06 ± 0.044 |
| L3M | -0.034 ± 0.063 |
| L3N | -0.675 ± 0.15 |
| L3P | -0.711 ± 0.11 |
| L3Q | -0.025 ± 0.053 |
| L3R | 0.01 ± 0.046 |
| L3S | -0.459 ± 0.069 |
| L3T | -0.526 ± 0.11 |
| L3V | -0.324 ± 0.057 |
| L3W | -0.643 ± 0.11 |
| L3Y | -0.268 ± 0.063 |
| V4A | -0.804 ± 0.095 |
| V4C | -0.717 ± 0.18 |
| V4D | -0.888 ± 0.15 |

| Variant | abundance fitness |
| --- | --- |
| V4E | -0.463 ± 0.071 |
| V4F | -0.35 ± 0.072 |
| V4G | -0.966 ± 0.32 |
| V4H | -0.855 ± 0.2 |
| V4I | 0.049 ± 0.043 |
| V4K | -0.685 ± 0.23 |
| V4L | -0.388 ± 0.053 |
| V4M | -0.34 ± 0.071 |
| V4N | -0.876 ± 0.18 |
| V4Q | -1.01 ± 0.24 |
| V4R | -0.71 ± 0.12 |
| V4S | -0.836 ± 0.12 |
| V4T | -0.833 ± 0.17 |
| V4W | -0.796 ± 0.34 |
| R5A | 0.056 ± 0.052 |
| R5C | -0.316 ± 0.41 |
| R5D | -0.161 ± 0.23 |
| R5E | 0.056 ± 0.06 |
| R5F | -0.257 ± 0.11 |
| R5G | -0.158 ± 0.053 |
| R5H | -0.15 ± 0.094 |
| R5I | -0.465 ± 0.094 |
| R5K | 0.091 ± 0.055 |
| R5L | -0.178 ± 0.035 |
| R5N | 0.194 ± 0.08 |
